Experimental findings from patent publication US20180282429A1 (Zymeworks, published 2018) are described below.

The target of test [1] is T1, recombinant human HER2 (human, UniProt P04626 23-652).
T1 construct: extracellular domain
Description: SPR by the protocol of Example 12, sample after SEC, against v10013.
Description: (§1) Between 2000 and 4000 RU of anti-human Fc injected at concentration between 5 and 10 μg/ml was immobilized on a CM5 chip using standard amine coupling. […] HER2 dilutions were analyzed in duplicate. Sensograms were fit globally to a 1:1 Langmuir binding model. All experiments were conducted at 25° C.
(§2) The SPR was measured before and after SEC purification.

The target in test [2] is T1, recombinant human HER2. Description: SPR by the protocol of Example 12, sample before SEC, against v10013.
Description: as §1, §2

B1: Variant 10014 (antibody, human IgG1, kappa)
heavy: EVQLVESGGGLVQPGGSLRLSCAASGFTFADYTMDWVRQAPGKGLEWVADVNPNSGGSIYNQRFKGRFTLSVDRSKNTLYLQMNSLRAEDTAVYYCARNLGPSFYFDYWGQGTLVTVSSASTKGPSVFPLAPSSKSTSGGTAALGCLVKDYFPEPVTVSWNSGALTSGVHTFPAVLQSSGLYSLSSVVTVPSSSLGTQTYICNVNHKPSNTKVDKKVEPKSCDKTHTCPPCPAPELLGGPSVFLFPPKPKDTLMISRTPEVTCVVVDVSHEDPEVKFNWYVDGVEVHNAKTKPREEQYNSTYRVVSVLTVLHQDWLNGKEYKCKVSNKALPAPIEKTISKAKGQPREPQVYVYPPSRDELTKNQVSLTCLVKGFYPSDIAVEWESNGQPENNYKTTPPVLDSDGSFALVSKLTVDKSRWQQGNVFSCSVMHEALHNHYTQKSLSLSPG
light: not shown
Fc: not shown
notes: also called v10014
In the case of B1, the “Fold wrt WT (KD(WT)/KD(mut))” value came out at 7 fold in the test with recombinant human HER2 [1] and 8.1 fold with recombinant human HER2 [2].
